According to US20240287208A1 (CONCEPT TO MEDICINE BIOTECH, published 2024):

Tests used:
[1] = molecular target: T1, human CD40 on the cell surface (human, UniProt P25942 21-277); test: FACS, human dendritic cells, MFI
T1 construct: whole, on cells; also called cell surface CD40; Jurkat-CD40

[2] = molecular target: T1, human CD40 on the cell surface; test: FACS, Jurkat cells overexpressing human CD40, PE anti-human IgG, MFI
Method: To evaluate the binding affinity of 5T4-CD40 bispecific antibodies to cell surface CD40, bispecific antibodies with formats of b 1 (42p155z2), b12 (42p155z2), b13 (42p155z2), b16 (42p155z2), b17 (42p155z2) and b18 (2p1130) were tested in Jurkat cell lines that overexpressed CD40 by FACS. A total number of 1×10⁵ Jurkat-CD40 cells in each well were incubated with 5-fold serially diluted antibodies starting from 100 nM for 30 minutes at 4° C. in FACS buffer. After wash by FACS buffer, PE conjugated-anti-human IgG antibody was added to each well and incubated at 4° C. for 30 minutes. After wash, MFI of PE was evaluated by MACSQuant Analyzer 16.

T1 sequence (P25942 21-277): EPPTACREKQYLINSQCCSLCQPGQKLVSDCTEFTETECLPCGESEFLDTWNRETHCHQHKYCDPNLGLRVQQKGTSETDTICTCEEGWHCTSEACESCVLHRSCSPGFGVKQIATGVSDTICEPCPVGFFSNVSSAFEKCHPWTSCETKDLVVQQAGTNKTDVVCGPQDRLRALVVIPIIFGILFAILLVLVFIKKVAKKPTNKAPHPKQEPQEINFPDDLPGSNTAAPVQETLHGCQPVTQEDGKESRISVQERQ

B1: b16 (42p155z2) anti-5T4/CD40 bispecific antibody (bispecific antibody, human IgG1, kappa, N297A)
heavy 1: EVQLQQSGPELVKPGASVKISCKASGYAFSSSWMNWVKQRPGKGLEWIGRIYREDGHTNYNGKFKGKATLTADKSSTTAYMQLTSLTSEDSAVYFCANGGAMDYWGQGTSVTVSSASTKGPSVFPLAPSSKSTSGGTAALGCLVKDYFPEPVTVSWNSGALTSGVHTFPAVLQSSGLYSLSSVVTVPSSSLGTQTYICNVNHKPSNTKVDKKVEPKSCDKTHTCPPCPAPELLGGPSVFLFPPKPKDTLMISRTPEVTCVVVDVSHEDPEVKFNWYVDGVEVHNAKTKPREEQYASTYRVVSVLTVLHQDWLNGKEYKCKVSNKALPAPIEKTISKAKGQPREPQVCTLPPSREEMTKNQVSLSCAVKGFYPSDIAVEWESNGQPENNYKTTPPVLDSDGSFFLVSKLTVDKSRWQQGNVFSCSVMHEALHNHYTQKSLSLSPGK
light: DIQMTQSTSSLSASLGDRVTISCRASQDISNYLNWYQQKPDGTVKLLIYYTSRLHSGVPSRFSGSGSGTDYSLTISNLEQEDIATYFCQQDNTLPWTFGGGTKLEIKRTVAAPSVFIFPPSDEQLKSGTASVVCLLNNFYPREAKVQWKVDNALQSGNSQESVTEQDSKDSTYSLSSTLTLSKADYEKHKVYACEVTHQGLSSPVTKSFNRGEC
heavy 2: not shown
notes: also called 1+2 b16 format; chimeric antibody b16 (42p155z2)
EC50 (read off the curve) [1]: ~0.7 nM
EC50 (read off the curve) [2]: ~0.5 nM
